The source of these data is patent publication US20150307603A1 (MODIQUEST B V, published 2015).

This assay deals with T1, peptide no. 5 (human histone 2A) (human, also: biotin-labelled).
T1 construct: also called peptide 5
T1 peptide: VGRVH[Cit]LLRKGN
Briefly: ELISA, Ab 0.00064 ug/well. The procedure:
Biotin and citrulline-containing peptides derived from histone 2A were immobilized on NEUTRAVIDIN®-coated 96-well ELISA plates (0.3 μg/well). CFC-1 and CFC-0 were coated at the same concentration and served as positive and negative controls, respectively, for specific anti-citrulline reactivity and as coating controls. Non-coated wells were used to test for aspecific binding of the antibodies. […] Detection of bound anti-citrulline antibodies was performed by incubating the wells with rabbit anti-human HRP (1:2000) for 1 hour at RT followed by incubation with TMB substrate. The resulting OD (y-axis) is a measure for antibody binding.
A general note: In an ELISA, binding on a coated surface is turned into a signal by an enzyme label.

Non-standard residues stand in square brackets, D forms with d. No end group written: not given here. Cit = NC(=O)NCCC[C@H](N)C(=O)O

B1: RhmAb2.102 (antibody, human IgG1, lambda)
heavy: not shown
light: QSVLTQPPSMSAAPGQKVTISCSGSSSNIGNNYVSWYQQVPGTAPKLLIYDDNKRPSGIPGRFSGSKSATSATLGITGLQAGDEADYYCGSWDDNLSVVLFGGGTKLTVLGQPKAAPSVTLFPPSSEELQANKATLVCLISDFYPGAVTVAWKADSSPVKAGVETTTPSKQSNNKYAASSYLSLTPEQWKSHRSYSCQVTHEGSTVEKTVAPTECS
notes: Human IgG1 lambda; also called Rhm2.102
As to B1, the OD turned out to be 0.067 OD450.
